{"source": "paper PMC6005164", "about": "“A novel thymidylate synthase from the Vibrionales, Alteromonadales, Aeromonadales, and Pasteurellales (VAAP) clade with altered nucleotide and folate binding sites” (PeerJ, 2018)", "molecules": {"B1": {"name": "VpTS (Vibrio parahaemolyticus RIMD 2210633) (protein)", "chain": "MKQYLDLCQRIVDQGVWVENERTGKRCLTVINADLTYDVANNQFPLVTTRKSFWKAAVAELLGYIRGYDNAEDFRKLGTKTWDANANLNDAWLNNPYRKGEDDMGRVYGVQGRAWAKPDGGHIDQLRKIVDDLTRGVDDRGEILNFYNPGEFHMGCLRPCMYSHHFSLLDDTLYLNSTQRSCDVPLGLNFNMVQVYVFLAIMAQITGKKPGQAFHKIVNAHIYEDQLELMRDVQLKREPLQAPTFHINPEIKSLEDLETWVTLDDFWVEGYEHHDPIRYPFSV", "notes": "full-length from codon-optimized synthetic gene in pJexpress414; E. coli BL21(DE3)-SI; 35,944 Da with tag; homodimer 70 kDa"}, "B2": {"name": "recombinant thymidylate synthase from Vibrio parahaemolyticus FIM-S1708+ (enzyme, UniProt Q87SA0 1-283, looked up)", "chain": "B1 chain", "notes": "thymidylate synthase (folate-dependent, thyA) of Vibrio parahaemolyticus strain FIM-S1708+, GenBank WP_100088861.1; codon-optimized synthetic gene in pJexpress414; theoretical mass with tag 35,944 Da; the 35 kDa band is compared with the mass that includes the 10-His tag, so the tag was probably still on the protein in the size exclusion run; also called VpTS; TS"}}, "key": {"VpTS": {"molecular_target": "T1, VpTS (Vibrio parahaemolyticus, UniProt Q87SA0)", "T1 construct": "gene thyA; full-length from codon-optimized synthetic gene in pJexpress414; E. coli BL21(DE3)-SI; 35,944 Da with tag; homodimer 70 kDa", "T1 sequence (Q87SA0 1-283)": "B1 chain", "test": "spectrophotometric dihydrofolate formation at […] nm, dose-response fit", "format": "biochemical"}, "purified protein [1]": {"substrate": "Nc1nc2c(c(=O)[nH]1)N1CN(c3ccc(C(=O)N[C@@H](CCC(=O)O)C(=O)O)cc3)C[C@H]1CN2", "test": "purified protein", "format": "biochemical, Vibrio parahaemolyticus", "conditions": "co-substrate dUMP, mTHF 0–300 µM, 50 mM Tris-HCl pH 7.5, 25 mM MgCl2, 5 mM DTT, 1 mM EDTA, 30 °C, varied: cofactor"}, "purified protein [2]": {"substrate": "O=c1ccn([C@H]2C[C@H](O)[C@@H](COP(=O)(O)O)O2)c(=O)[nH]1", "test": "purified protein", "format": "biochemical, Vibrio parahaemolyticus", "conditions": "co-substrate mTHF, dUMP 0–150 µM, 50 mM Tris-HCl pH 7.5, 25 mM MgCl2, 5 mM DTT, 1 mM EDTA, 30 °C"}, "[3]": {"molecular_target": "the molecule itself", "test": "SEC; Superdex 75 10/300, 1 mL/min, Tris HCl 20 mM pH 7.5, NaCl 100 mM; native molecular weight from a Kav vs. log MW plot of standards"}}, "data": [{"molecule": "COc1cc(Cc2cnc(N)nc2N)cc(OC)c1OC", "note": "[trimethoprim]", "values": [{"measurement": "IC50", "setting": "VpTS", "value": "106 ± 11.4", "unit": "µM"}]}, {"molecule": "B1", "values": [{"measurement": "Km", "setting": "purified protein [1]", "value": "96.3 ± 18", "unit": "µM"}, {"measurement": "kcat", "setting": "purified protein [1]", "value": 0.3, "unit": "s⁻¹"}, {"measurement": "Km", "setting": "purified protein [2]", "value": "27.3 ± 4.3", "unit": "µM"}, {"measurement": "kcat", "setting": "purified protein [2]", "value": 0.3, "unit": "s⁻¹"}]}, {"molecule": "B2", "values": [{"measurement": "stoichiometry N", "setting": "[3]", "value": 2}]}]}
